Data: the supplement of paper PMC10065799, “High-throughput profiling of sequence recognition by tyrosine kinases and SH2 domains using bacterial peptide display” (eLife, 2023)

What was measured:
[1] = tested on: c-Src; assay: phosphorylation enrichment, bacterial display (enrichment ratio); higher = better substrate or ligand; peptides without Tyr show the background
[2] = biological target: EPHB2 (UniProt P29323); assay: as above
[3] = biological target: EPHB1 (UniProt P54762); assay: as above
[4] = biological target: FGFR1 (UniProt P11362); assay: as above
[5] = tested on: AncSZ; assay: as above
[6] = biological target: FGFR3 (UniProt P22607); assay: as above
Sequence of FGFR3 (P22607 whole entry, looked up): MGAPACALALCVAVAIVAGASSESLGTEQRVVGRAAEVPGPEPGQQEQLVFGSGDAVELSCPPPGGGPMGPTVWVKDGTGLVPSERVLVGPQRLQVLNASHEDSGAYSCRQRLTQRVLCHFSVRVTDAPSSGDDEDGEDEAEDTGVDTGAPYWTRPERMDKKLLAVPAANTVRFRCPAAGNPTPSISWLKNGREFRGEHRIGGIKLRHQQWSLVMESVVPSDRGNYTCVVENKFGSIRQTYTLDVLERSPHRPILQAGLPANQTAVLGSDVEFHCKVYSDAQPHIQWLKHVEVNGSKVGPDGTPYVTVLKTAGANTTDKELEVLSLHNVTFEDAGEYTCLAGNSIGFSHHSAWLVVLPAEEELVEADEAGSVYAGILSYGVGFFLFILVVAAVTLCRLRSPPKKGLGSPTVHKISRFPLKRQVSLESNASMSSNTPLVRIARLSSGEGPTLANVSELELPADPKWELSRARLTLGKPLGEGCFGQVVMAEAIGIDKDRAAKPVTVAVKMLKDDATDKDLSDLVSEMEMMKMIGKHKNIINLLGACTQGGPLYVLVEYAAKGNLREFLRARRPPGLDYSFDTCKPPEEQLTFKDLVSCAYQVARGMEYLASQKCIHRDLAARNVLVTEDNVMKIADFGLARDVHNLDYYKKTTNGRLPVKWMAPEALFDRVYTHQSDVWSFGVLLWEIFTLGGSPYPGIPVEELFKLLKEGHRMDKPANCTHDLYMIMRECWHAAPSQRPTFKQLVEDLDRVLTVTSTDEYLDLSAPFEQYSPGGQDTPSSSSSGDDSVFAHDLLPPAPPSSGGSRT

[7] = tested on: c-Abl (mouse); assay: as above
[8] = biological target: Jak2 (UniProt O60674); assay: as above
Sequence of Jak2 (O60674 whole entry, looked up): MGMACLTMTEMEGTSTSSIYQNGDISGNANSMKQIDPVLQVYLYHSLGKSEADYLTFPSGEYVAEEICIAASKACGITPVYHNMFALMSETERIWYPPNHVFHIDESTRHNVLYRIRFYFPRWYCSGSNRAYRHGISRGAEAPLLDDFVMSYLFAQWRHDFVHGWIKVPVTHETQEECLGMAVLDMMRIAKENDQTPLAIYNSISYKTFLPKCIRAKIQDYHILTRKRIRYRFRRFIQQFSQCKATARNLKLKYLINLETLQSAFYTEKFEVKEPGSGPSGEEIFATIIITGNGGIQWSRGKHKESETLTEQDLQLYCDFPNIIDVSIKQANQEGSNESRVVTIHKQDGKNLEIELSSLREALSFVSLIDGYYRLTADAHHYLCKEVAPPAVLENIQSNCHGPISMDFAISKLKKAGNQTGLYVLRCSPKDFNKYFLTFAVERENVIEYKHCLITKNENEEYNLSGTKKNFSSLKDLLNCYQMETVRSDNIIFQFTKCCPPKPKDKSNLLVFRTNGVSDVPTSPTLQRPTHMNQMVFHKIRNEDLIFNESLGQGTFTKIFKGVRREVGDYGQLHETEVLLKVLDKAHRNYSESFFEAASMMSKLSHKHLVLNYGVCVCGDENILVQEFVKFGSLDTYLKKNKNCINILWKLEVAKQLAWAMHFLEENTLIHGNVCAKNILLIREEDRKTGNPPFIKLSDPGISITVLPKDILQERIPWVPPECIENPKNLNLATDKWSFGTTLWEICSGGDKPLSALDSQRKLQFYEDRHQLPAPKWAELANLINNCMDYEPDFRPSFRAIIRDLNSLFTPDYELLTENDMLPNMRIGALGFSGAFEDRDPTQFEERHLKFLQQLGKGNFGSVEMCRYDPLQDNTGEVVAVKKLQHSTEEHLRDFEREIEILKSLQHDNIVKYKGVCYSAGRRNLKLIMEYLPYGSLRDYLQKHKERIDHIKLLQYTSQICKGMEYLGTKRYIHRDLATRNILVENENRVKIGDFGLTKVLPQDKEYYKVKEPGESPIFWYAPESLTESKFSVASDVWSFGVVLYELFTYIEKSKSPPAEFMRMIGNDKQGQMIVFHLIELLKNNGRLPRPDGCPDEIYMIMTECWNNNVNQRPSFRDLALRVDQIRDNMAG

[9] = biological target: MERTK (UniProt Q12866); assay: as above
Sequence of MERTK (Q12866 whole entry, looked up): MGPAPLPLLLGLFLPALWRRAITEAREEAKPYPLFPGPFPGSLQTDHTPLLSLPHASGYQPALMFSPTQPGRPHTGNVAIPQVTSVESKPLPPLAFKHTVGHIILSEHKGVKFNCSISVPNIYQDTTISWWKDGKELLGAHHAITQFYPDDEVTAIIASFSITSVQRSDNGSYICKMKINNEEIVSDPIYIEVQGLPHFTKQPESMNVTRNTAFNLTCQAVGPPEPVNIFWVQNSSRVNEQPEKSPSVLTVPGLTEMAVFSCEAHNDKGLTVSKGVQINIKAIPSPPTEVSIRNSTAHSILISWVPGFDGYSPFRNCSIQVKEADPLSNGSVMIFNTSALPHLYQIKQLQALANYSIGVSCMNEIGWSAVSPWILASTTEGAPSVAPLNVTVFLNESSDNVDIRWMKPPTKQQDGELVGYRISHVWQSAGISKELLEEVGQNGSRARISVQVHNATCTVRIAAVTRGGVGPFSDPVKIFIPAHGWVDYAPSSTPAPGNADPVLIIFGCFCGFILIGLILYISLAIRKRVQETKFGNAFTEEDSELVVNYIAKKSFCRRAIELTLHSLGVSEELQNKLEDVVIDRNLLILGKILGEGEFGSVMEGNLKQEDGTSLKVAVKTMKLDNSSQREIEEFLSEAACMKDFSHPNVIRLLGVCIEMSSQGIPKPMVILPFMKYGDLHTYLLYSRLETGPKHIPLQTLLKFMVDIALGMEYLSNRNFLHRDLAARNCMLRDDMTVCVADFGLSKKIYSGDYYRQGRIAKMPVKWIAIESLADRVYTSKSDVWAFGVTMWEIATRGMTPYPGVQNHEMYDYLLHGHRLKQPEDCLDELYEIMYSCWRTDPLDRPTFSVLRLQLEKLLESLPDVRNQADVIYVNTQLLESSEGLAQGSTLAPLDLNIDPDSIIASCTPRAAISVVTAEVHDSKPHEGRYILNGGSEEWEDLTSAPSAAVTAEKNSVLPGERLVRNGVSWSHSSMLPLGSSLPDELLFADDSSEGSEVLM

[10] = biological target: Fyn (UniProt P06241); assay: as above
Sequence of Fyn (P06241 whole entry, looked up): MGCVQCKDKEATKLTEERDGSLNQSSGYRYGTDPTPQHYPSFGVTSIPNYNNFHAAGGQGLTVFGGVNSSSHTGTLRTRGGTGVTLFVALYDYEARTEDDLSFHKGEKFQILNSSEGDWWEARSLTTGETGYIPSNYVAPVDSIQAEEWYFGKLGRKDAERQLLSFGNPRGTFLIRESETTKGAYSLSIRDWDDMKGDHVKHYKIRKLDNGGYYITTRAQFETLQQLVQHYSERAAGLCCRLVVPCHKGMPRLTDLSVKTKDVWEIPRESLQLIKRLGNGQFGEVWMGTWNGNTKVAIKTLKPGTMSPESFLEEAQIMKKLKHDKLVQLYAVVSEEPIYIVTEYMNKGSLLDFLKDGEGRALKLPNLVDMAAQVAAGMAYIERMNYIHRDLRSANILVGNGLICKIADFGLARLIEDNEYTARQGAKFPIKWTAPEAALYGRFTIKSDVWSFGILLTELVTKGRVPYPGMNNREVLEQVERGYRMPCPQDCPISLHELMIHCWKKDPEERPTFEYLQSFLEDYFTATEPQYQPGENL

[11] = biological target: Hck (UniProt P08631); assay: as above
Sequence of Hck (P08631 whole entry, looked up): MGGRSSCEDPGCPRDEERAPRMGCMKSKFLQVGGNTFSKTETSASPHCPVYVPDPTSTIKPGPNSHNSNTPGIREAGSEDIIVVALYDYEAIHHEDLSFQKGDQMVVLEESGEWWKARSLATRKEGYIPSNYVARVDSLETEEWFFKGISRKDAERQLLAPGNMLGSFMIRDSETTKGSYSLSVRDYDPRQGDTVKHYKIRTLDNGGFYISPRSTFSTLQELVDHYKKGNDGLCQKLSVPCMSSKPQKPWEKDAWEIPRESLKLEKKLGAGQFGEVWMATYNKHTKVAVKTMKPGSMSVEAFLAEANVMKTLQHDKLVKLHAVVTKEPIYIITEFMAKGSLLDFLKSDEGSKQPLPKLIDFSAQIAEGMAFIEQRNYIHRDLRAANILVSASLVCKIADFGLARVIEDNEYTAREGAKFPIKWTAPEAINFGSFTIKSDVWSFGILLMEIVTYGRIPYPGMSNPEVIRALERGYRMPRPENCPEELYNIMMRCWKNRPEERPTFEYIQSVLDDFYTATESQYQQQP

[12] = biological target: Fes (UniProt P07332); assay: as above
[13] = tested on: Fer (mouse); assay: as above
[14] = biological target: SHP2-C SH2; assay: SH2 binding enrichment of the phosphorylated peptide, bacterial display (enrichment ratio); higher = better substrate or ligand; peptides without Tyr show the background
[15] = biological target: c-Src SH2; assay: as above
[16] = biological target: Grb2 SH2 (UniProt P62993); assay: as above
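Throughout, for SH2 binding enrichment of the phosphorylated peptide, bacterial display: peptide library displayed on the E. coli surface as eCPX fusions, selected cells deep-sequenced, score is each peptide's frequency after selection divided by its frequency in the input.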
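Throughout, for phosphorylation enrichment, bacterial display: 11-residue human phosphosite peptides and single-mutation variants displayed on the E. coli surface, counted by deep sequencing, each peptide's frequency after selection divided by its frequency in the unselected input library; frequency after pTyr selection over input frequency; kinase dosed for 20-30% of maximal phosphorylation in three min.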

Sequence of EPHB2 (P29323 whole entry, looked up): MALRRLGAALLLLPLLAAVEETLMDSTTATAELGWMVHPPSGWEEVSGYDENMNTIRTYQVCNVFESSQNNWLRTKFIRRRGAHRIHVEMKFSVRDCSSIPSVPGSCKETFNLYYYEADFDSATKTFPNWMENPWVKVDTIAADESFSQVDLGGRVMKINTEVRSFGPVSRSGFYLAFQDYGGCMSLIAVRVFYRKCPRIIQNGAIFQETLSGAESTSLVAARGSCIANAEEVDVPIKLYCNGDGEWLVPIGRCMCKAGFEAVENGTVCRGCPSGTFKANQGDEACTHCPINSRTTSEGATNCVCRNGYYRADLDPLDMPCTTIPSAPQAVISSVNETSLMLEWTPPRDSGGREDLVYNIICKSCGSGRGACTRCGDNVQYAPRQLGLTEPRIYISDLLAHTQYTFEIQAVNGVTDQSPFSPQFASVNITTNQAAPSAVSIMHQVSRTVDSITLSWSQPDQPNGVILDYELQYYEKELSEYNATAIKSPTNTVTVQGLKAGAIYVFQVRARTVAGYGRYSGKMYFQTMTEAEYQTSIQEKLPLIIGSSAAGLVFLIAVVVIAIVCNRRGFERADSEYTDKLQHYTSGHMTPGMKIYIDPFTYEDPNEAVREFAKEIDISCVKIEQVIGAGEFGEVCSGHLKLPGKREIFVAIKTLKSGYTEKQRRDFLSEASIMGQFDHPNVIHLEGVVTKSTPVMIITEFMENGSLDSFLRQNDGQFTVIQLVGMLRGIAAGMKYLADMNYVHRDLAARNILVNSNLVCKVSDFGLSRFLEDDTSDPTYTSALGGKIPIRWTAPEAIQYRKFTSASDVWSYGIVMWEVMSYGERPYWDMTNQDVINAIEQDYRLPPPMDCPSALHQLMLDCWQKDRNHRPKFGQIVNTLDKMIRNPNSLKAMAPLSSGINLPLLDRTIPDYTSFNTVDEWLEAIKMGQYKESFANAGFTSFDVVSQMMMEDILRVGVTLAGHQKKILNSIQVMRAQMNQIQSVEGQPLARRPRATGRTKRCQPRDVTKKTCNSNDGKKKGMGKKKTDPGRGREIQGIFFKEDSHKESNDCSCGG

Sequence | phosphorylation enrichment [1] | phosphorylation enrichment [2] | phosphorylation enrichment [3] | phosphorylation enrichment [4] | phosphorylation enrichment [5] | phosphorylation enrichment [6] | phosphorylation enrichment [7] | phosphorylation enrichment [8] | phosphorylation enrichment [9] | phosphorylation enrichment [10] | phosphorylation enrichment [11] | phosphorylation enrichment [12] | phosphorylation enrichment [13] | SH2 binding enrichment [14] | SH2 binding enrichment [15] | SH2 binding enrichment [16]
FGYPGYQSKHY [TIMP3_Y177] | 0.534 | 0.465 | 0.512 | 0.349 | 0.592 | 0.546 | 0.496 | 0.607 | 0.435 | 0.516 | 0.414 | 0.8 | 0.443 | 0.751 | 0.511 | 0.895
VKPENYWRLDI [VHL_Y175_R176W] | 0.377 | 0.61 | 0.814 | 0.783 | 1.13 | 0.895 | 0.839 | 1.39 | 0.588 | 0.381 | 0.443 | 1.15 | 0.441 | 0.876 | 0.586 | 0.902
RVLQLYGCSPS [ASTL_Y279_K277Q] | 1.38 | 1.71 | 1.3 | 1.06 | 1.69 | 1.26 | 1.38 | 1.48 | 0.576 | 1.54 | 2.33 | 1.72 | 1.15 | 0.727 | 0.493 | 0.853
RAILDYIASKY [GSTA3_Y74_N73D] | 0.376 | 0.646 | 0.456 | 0.512 | 0.867 | 0.661 | 0.616 | 0.718 | 0.473 | 0.564 | 0.471 | 0.761 | 0.665 | 0.872 | 0.746 | 1.06
EKKKFYDTKIE [CASP5_Y104_YF] | 0.6 | 0.397 | 0.396 | 0.342 | 0.772 | 0.567 | 0.653 | 0.883 | 0.428 | 0.353 | 0.503 | 0.933 | 0.446 | 0.437 | 0.427 | 0.636
SFHSSYSEIKD [DCLRE1C_Y322] | 0.506 | 0.532 | 0.435 | 0.554 | 0.738 | 0.681 | 0.448 | 0.559 | 0.57 | 0.512 | 0.51 | 0.744 | 0.52 | 4.96 | 22.5 | 0.982
GNHVSYYQSDG [CACNA1C_Y1757] | 0.574 | 0.485 | 0.557 | 0.718 | 0.774 | 0.81 | 0.621 | 0.667 | 0.81 | 0.462 | 0.57 | 0.762 | 0.49 | 0.802 | 0.902 | 0.806
IVEYAYNDKAV [PUM3_Y259_I264V] | 0.492 | 0.418 | 0.669 | 0.52 | 0.989 | 0.673 | 1.01 | 1 | 0.5 | 0.418 | 0.42 | 1.1 | 0.455 | 0.881 | 0.719 | 0.927
RFWPRYVKVGS [NOG_Y172] | 0.535 | 0.478 | 0.532 | 0.487 | 1.36 | 0.751 | 0.691 | 0.622 | 0.46 | 0.68 | 0.726 | 0.624 | 0.726 | 0.429 | 0.446 | 0.701
KGPNVCKKTVN [REV3L_Y1156_Y1156C] | 0.54 | 0.525 | 0.457 | 0.529 | 0.644 | 0.741 | 1.13 | 0.944 | 0.415 | 0.378 | 0.516 | 0.863 | 0.376 | 1.48 | 1.19 | 1.38
LWPIWYRCRRP [MRGPRX1_Y130_H133R] | 0.431 | 0.49 | 0.58 | 0.461 | 0.618 | 0.507 | 0.542 | 0.408 | 0.685 | 0.522 | 0.805 | 0.512 | 0.331 | 0.857 | 0.421 | 0.565
KQRSDYARELE [MYH3_Y1140] | 0.362 | 0.435 | 0.38 | 0.331 | 0.636 | 0.481 | 0.625 | 0.596 | 0.38 | 0.417 | 0.393 | 0.789 | 0.358 | 0.859 | 0.512 | 1.01
MSRFIYSTDFF [NTRK1_Y676_D674Y_YF] | 4.05 | 2.11 | 2.29 | 1.47 | 0.887 | 1.27 | 0.664 | 1.04 | 8.57 | 4.15 | 2.49 | 1.31 | 0.887 | 1.05 | 0.806 | 1.14
GRRGQYVMPSE [TTC7A_Y396_L399P] | 0.41 | 0.481 | 0.356 | 0.433 | 0.586 | 0.394 | 0.482 | 0.323 | 0.465 | 0.415 | 0.41 | 0.557 | 0.39 | 0.519 | 1.92 | 0.782
VLDCHYPEDEV [C1QBP_Y188] | 0.571 | 0.725 | 0.589 | 0.596 | 1.22 | 0.88 | 0.919 | 1.3 | 0.556 | 0.464 | 0.629 | 1.27 | 0.632 | 0.929 | 0.468 | 1.01
FCGFSYDDIPD [TMEM230_Y112_R108C_YF] | 0.537 | 0.707 | 0.694 | 0.592 | 1.46 | 0.918 | 1.02 | 1.22 | 0.558 | 0.481 | 0.63 | 1.27 | 0.76 | 0.674 | 10.3 | 1.11
IRKDLYANNVL [ACTA2_Y296] | 0.429 | 0.46 | 0.38 | 0.421 | 0.527 | 0.564 | 0.581 | 0.54 | 0.476 | 0.413 | 0.45 | 0.59 | 0.422 | 0.614 | 0.569 | 1.23

Sequence | phosphorylation enrichment [1] | phosphorylation enrichment [2] | phosphorylation enrichment [3] | phosphorylation enrichment [4] | phosphorylation enrichment [5] | phosphorylation enrichment [6] | phosphorylation enrichment [7] | phosphorylation enrichment [8] | phosphorylation enrichment [9] | phosphorylation enrichment [10] | phosphorylation enrichment [11] | phosphorylation enrichment [12] | phosphorylation enrichment [13] | SH2 binding enrichment [14] | SH2 binding enrichment [15] | SH2 binding enrichment [16]
HGEAVYSRDCV [XPC_Y676_R671H] | 3.78 | 0.51 | 0.473 | 0.621 | 0.697 | 0.687 | 0.66 | 0.786 | 0.89 | 3.49 | 2.75 | 0.819 | 0.664 | 0.716 | 0.586 | 1.18
DNQFAYLKAII [HNF4A_Y288_E285Q_YF] | 0.372 | 0.595 | 0.43 | 0.473 | 1.16 | 0.702 | 0.711 | 1.02 | 0.369 | 0.396 | 0.393 | 1.33 | 0.592 | 0.62 | 0.353 | 0.782
FSAPNYCYRCG [PPP2CA_Y265] | 0.382 | 0.455 | 0.498 | 0.446 | 0.656 | 0.45 | 0.452 | 0.501 | 0.423 | 0.458 | 0.414 | 0.564 | 0.327 | 0.933 | 0.762 | 1.1
HFPFQCHRQLF [F12_Y53_Y53C_YF] | 0.692 | 0.758 | 0.875 | 0.745 | 1.76 | 1.4 | 1.09 | 1.1 | 0.885 | 0.535 | 1.07 | 1.64 | 0.587 | 1.01 | 0.951 | 1.23
RRNEIYEIKVD [LGR5_Y387_H383R] | 4.83 | 1.4 | 0.751 | 0.923 | 1.09 | 0.771 | 0.574 | 0.669 | 0.468 | 5.59 | 5.36 | 1.36 | 0.757 | 0.692 | 0.426 | 0.986
LITTLYISFLG [KCNQ1_Y267_G269S] | 1.56 | 0.784 | 0.852 | 0.71 | 1.47 | 1.06 | 1.64 | 2.27 | 0.902 | 0.913 | 1.15 | 1.98 | 0.757 | 0.621 | 0.838 | 0.872
MCDKEYFSVHN [MET_Y1234_Y1230C_YF] | 0.576 | 0.482 | 0.692 | 1.78 | 1.31 | 1.47 | 0.586 | 1.11 | 0.404 | 0.505 | 0.453 | 0.866 | 0.506 | 1.01 | 0.696 | 1.15
DRLASYPDKVR [KRT14_Y129_L130P] | 0.372 | 0.356 | 0.354 | 0.417 | 0.508 | 0.391 | 0.482 | 0.508 | 0.383 | 0.371 | 0.387 | 0.516 | 0.373 | 0.587 | 0.461 | 0.901
RGDIFYTSKLW [AKR1C3_Y81_E77G] | 0.735 | 0.963 | 0.964 | 0.923 | 1.72 | 1.09 | 0.889 | 1.33 | 0.803 | 0.611 | 0.46 | 1.59 | 0.648 | 0.888 | 0.55 | 0.919
SVFNNYIQTLG [CTNND1_Y174_S171F] | 0.402 | 0.418 | 0.835 | 0.585 | 0.705 | 0.528 | 0.557 | 0.775 | 0.411 | 0.442 | 0.463 | 0.678 | 0.391 | 0.917 | 0.739 | 1.05
TKGMIYGGGGG [PSME1_Y249] | 0.535 | 0.416 | 0.339 | 0.457 | 0.494 | 0.377 | 0.613 | 0.501 | 0.433 | 0.49 | 0.556 | 0.505 | 0.431 | 0.812 | 0.483 | 1.05
DVFLKYLNFAT [PDE6B_Y212] | 0.597 | 0.44 | 0.855 | 0.535 | 1.23 | 0.826 | 1.46 | 1.56 | 0.647 | 0.557 | 0.544 | 1.29 | 0.509 | 1.5 | 0.935 | 1.82
EKQLLYSENKT [FRK_Y132] | 0.616 | 0.652 | 0.528 | 0.456 | 0.732 | 0.599 | 0.563 | 0.638 | 0.766 | 0.465 | 0.85 | 0.919 | 1.19 | 0.674 | 0.55 | 0.976
FIGVTYKNEED [PDGFRA_Y993_YF] | 0.491 | 0.484 | 0.565 | 0.584 | 1.02 | 0.629 | 0.649 | 0.92 | 0.336 | 0.432 | 0.451 | 1.11 | 0.49 | 0.571 | 0.555 | 1.31
IVAEFYDNLPH [DEGS1_Y284_A280V_YF] | 0.733 | 0.556 | 0.517 | 0.477 | 0.929 | 0.624 | 0.694 | 0.792 | 0.853 | 0.549 | 3.36 | 0.891 | 0.978 | 0.695 | 0.931 | 0.727
KFADVYVGICL [B3GALNT1_Y269_E266A] | 1.12 | 0.988 | 0.846 | 0.65 | 1.46 | 0.909 | 1.29 | 1.21 | 0.522 | 0.787 | 0.85 | 1.34 | 0.978 | 0.369 | 0.423 | 0.731
